According to patent US20240200091A1, “USE OF PROTOPORPHYRINOGEN OXIDASE” (BEIJING DABEINONG BIOTECHNOLOGY CO., LTD., priority 2021, published 2024):

Columns and labels:
Assay type in all cases: in vivo
[1] = test system: transgenic soybean plants; test: flumioxazin tolerance of transgenic soybean plants (spray, grade of pesticide damage); conditions: for The grade of pesticide damage/plant: grade 0 / The grade of pesticide damage/plant: grade 1 / The grade of pesticide damage/plant: grade 2 / The grade of pesticide damage/plant: grade 3: 7 DAT, number of plants of 16 per genotype, grades
[2] = test system: transgenic soybean plants; test: oxyfluorfen tolerance of transgenic soybean plants (spray, grade of pesticide damage); conditions: for The grade of pesticide damage/plant: grade 0 / The grade of pesticide damage/plant: grade 1 / The grade of pesticide damage/plant: grade 2 / The grade of pesticide damage/plant: grade 3: 7 DAT, number of plants of 16 per genotype, grades; for tolerance to oxyfluorfen: soybean
[3] = test system: transgenic soybean plants; test: saflufenacil tolerance of transgenic soybean plants (spray, grade of pesticide damage); conditions: for The grade of pesticide damage/plant: grade 0 / The grade of pesticide damage/plant: grade 1 / The grade of pesticide damage/plant: grade 2 / The grade of pesticide damage/plant: grade 3: 7 DAT, number of plants of 16 per genotype, grades
[4] = test system: Arabidopsis thaliana T1 plants; test: saflufenacil tolerance of transgenic Arabidopsis thaliana T1 plants (spray, grade of pesticide damage); conditions: 7 DAT, number of plants of 24 per genotype, grades
Summary of the method: (§1)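 Graded 0–3 by injured-to-total leaf area 7 days after spraying, with grades 0–1 rated highly resistant. Plants (24 per genotype, 18 days old) received water or 1× and 4× field rates (sulfentrazone 1× and 2×, 450/900 g ai/ha) of each herbicide.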

[5] = test system: Arabidopsis thaliana T1 plants; test: oxyfluorfen tolerance of transgenic Arabidopsis thaliana T1 plants (spray, grade of pesticide damage); conditions: 7 DAT, number of plants of 24 per genotype, grades
Summary of the method: as §1

[6] = test system: Arabidopsis thaliana T1 plants; test: sulfentrazone tolerance of transgenic Arabidopsis thaliana T1 plants (spray, grade of pesticide damage); conditions: 7 DAT, number of plants of 24 per genotype, grades
Summary of the method: as §1

[7] = test system: Arabidopsis thaliana T1 plants; test: flumioxazin tolerance of transgenic Arabidopsis thaliana T1 plants (spray, grade of pesticide damage); conditions: 7 DAT, number of plants of 24 per genotype, grades
Summary of the method: as §1

B1: PPO-ECA: nucleotide sequence encoding Escherichia coli protoporphyrinogen oxidase PPO-EC (SEQ ID NO:43), Arabidopsis thaliana/soybean common codon usage bias (nucleic acid)
DNA: ATGAAAACACTTATCTTGTTCTCAACTAGAGATGGACAGACAAGAGAGATTGCTTCTTACTTGGCTTCAGAACTTAAGGAGTTGGGTATTCAAGCTGATGTTGCTAATGTTCATAGAATTGAAGAGCCTCAGTGGGAAAACTATGATAGAGTTGTTATTGGAGCTTCTATTAGATATGGTCATTACCATTCAGCTTTTCAAGAGTTCGTTAAGAAACATGCTACTAGACTTAACTCTATGCCATCAGCTTTTTACTCTGTTAACTTGGTTGCTAGAAAGCCTGAGAAAAGAACTCCACAAACAAACTCTTACGCTAGAAAGTTCCTTATGAACTCACAGTGGAGACCTGATAGATGCGCTGTTATTGCTGGTGCTCTTAGATATCCAAGATACAGATGGTACGATAGATTCATGATCAAGTTGATTATGAAAATGTCTGGAGGTGAAACTGATACAAGAAAGGAGGTTGTTTACACAGATTGGGAACAGGTTGCTAATTTCGCTAGAGAGATTGCTCATCTTACTGATAAGCCAACATTGAAATGA
modifications: The nucleotide sequence of PPO-ECA
B1 was tested, and the “The grade of pesticide damage/plant: grade 0” value ([1]; flumioxazin 120 g ai/ha (2×)) was 16 plant, the “The grade of pesticide damage/plant: grade 1” value ([1]; flumioxazin 120 g ai/ha (2×)) was 0 plant and the “The grade of pesticide damage/plant: grade 2” value ([1]; flumioxazin 120 g ai/ha (2×)) was 0 plant. For the same molecule, the “The grade of pesticide damage/plant: grade 3” value ([1]; flumioxazin 120 g ai/ha (2×)) was 0 plant, the “The grade of pesticide damage/plant: grade 0” value ([1]; flumioxazin 240 g ai/ha (4×)) was 15 plant and the “The grade of pesticide damage/plant: grade 1” value ([1]; flumioxazin 240 g ai/ha (4×)) was 1 plant. The “The grade of pesticide damage/plant: grade 2” value ([1]; flumioxazin 240 g ai/ha (4×)) was 0 plant, the “The grade of pesticide damage/plant: grade 3” value ([1]; flumioxazin 240 g ai/ha (4×)) was 0 plant and the tolerance to flumioxazin ([1]; soybean, flumioxazin at different concentrations (120 and 240 g ai/ha)) was “high-resistant tolerance”. The “The grade of pesticide damage/plant: grade 0” value ([2]; oxyfluorfen 360 g ai/ha (2×)) was 16 plant, the “The grade of pesticide damage/plant: grade 1” value ([2]; oxyfluorfen 360 g ai/ha (2×)) was 0 plant and the “The grade of pesticide damage/plant: grade 2” value ([2]; oxyfluorfen 360 g ai/ha (2×)) was 0 plant. For the same molecule, the “The grade of pesticide damage/plant: grade 3” value ([2]; oxyfluorfen 360 g ai/ha (2×)) was 0 plant, the “The grade of pesticide damage/plant: grade 0” value ([2]; oxyfluorfen 720 g ai/ha (4×)) was 13 plant and the “The grade of pesticide damage/plant: grade 1” value ([2]; oxyfluorfen 720 g ai/ha (4×)) was 3 plant. For the same molecule, the “The grade of pesticide damage/plant: grade 2” value ([2]; oxyfluorfen 720 g ai/ha (4×)) was 0 plant, the “The grade of pesticide damage/plant: grade 3” value ([2]; oxyfluorfen 720 g ai/ha (4×)) was 0 plant and the tolerance to oxyfluorfen ([2]; oxyfluorfen at four-fold field concentration (720 g ai/ha)) was “high-resistant tolerance”. The tolerance to oxyfluorfen ([2]; oxyfluorfen at two-fold field concentration (360 g ai/ha)) was “high-resistant tolerance”, the “The grade of pesticide damage/plant: grade 0” value ([3]; saflufenacil 50 g ai/ha (2×)) was 9 plant and the “The grade of pesticide damage/plant: grade 1” value ([3]; saflufenacil 50 g ai/ha (2×)) was 7 plant. For the same molecule, the “The grade of pesticide damage/plant: grade 2” value ([3]; saflufenacil 50 g ai/ha (2×)) was 0 plant, the “The grade of pesticide damage/plant: grade 3” value ([3]; saflufenacil 50 g ai/ha (2×)) was 0 plant and the “The grade of pesticide damage/plant: grade 0” value ([3]; saflufenacil 100 g ai/ha (4×)) was 8 plant. For the same molecule, the “The grade of pesticide damage/plant: grade 1” value ([3]; saflufenacil 100 g ai/ha (4×)) was 3 plant, the “The grade of pesticide damage/plant: grade 2” value ([3]; saflufenacil 100 g ai/ha (4×)) was 5 plant and the “The grade of pesticide damage/plant: grade 3” value ([3]; saflufenacil 100 g ai/ha (4×)) was 0 plant. The tolerance to saflufenacil ([3]; soybean, saflufenacil, compared with the control vector and CK) was “different extents of tolerance”.

B2: PPO14A: nucleotide sequence encoding microbial protoporphyrinogen oxidase PPO14 (SEQ ID NO:14), Arabidopsis thaliana/soybean common codon usage bias (nucleic acid)
DNA: ATGTCTAACAAGGCCTTGCTGCTCTATAGTACAAGAGAAGGTCAAACTAAAAAGATTCTTCAGTACATAGACAAAGAGCTTCATGATTACCAATGTGATTATGTCGATCTTCACACAATGCCTATAGAGATTGATTTCTCTGGTTATGATAAAGTTTTGGTAGGGGCGTCCATCCGGTATGGACATTTAAACAAAAAACTTTACAGATTCATCGAGAGGTACAAAGCAGAGTTGAAGGATAATAATGCTGCTTTCTTCTGCGTCAATCTAACCGCAAGGAAAGAACAACAAGGAAAAGATACTCCTGAAGGATCAGCTTATATTCAGACTTTTCTCAAGAAGTCTCCATGGCAGCCAGCATTGATAGGTGTTTTTGCTGGAGCTTTACGTTACCCGAAGTATAGATGGTTTGACAAGATGATGATTCGACTAATCATGACTATGACGGGCGGTGAAACCGACACATCAAAGGAAGTGGAGTATACAAATTGGAAGAAAGTGAGCCTCTTTGTTGAAAACTGGCAAAAGCAGTGA
modifications: The nucleotide sequence of PPO14A
For B2, the “The grade of pesticide damage/plant: grade 0” value ([4]; saflufenacil 25 g ai/ha (1×)) was 24 plant, the “The grade of pesticide damage/plant: grade 1” value ([4]; saflufenacil 25 g ai/ha (1×)) was 0 plant and the “The grade of pesticide damage/plant: grade 2” value ([4]; saflufenacil 25 g ai/ha (1×)) was 0 plant. The “The grade of pesticide damage/plant: grade 3” value ([4]; saflufenacil 25 g ai/ha (1×)) was 0 plant, the “The grade of pesticide damage/plant: grade 0” value ([4]; saflufenacil 100 g ai/ha (4×)) was 0 plant and the “The grade of pesticide damage/plant: grade 1” value ([4]; saflufenacil 100 g ai/ha (4×)) was 24 plant. The “The grade of pesticide damage/plant: grade 2” value ([4]; saflufenacil 100 g ai/ha (4×)) was 0 plant, the “The grade of pesticide damage/plant: grade 3” value ([4]; saflufenacil 100 g ai/ha (4×)) was 0 plant and the “The grade of pesticide damage/plant: grade 0” value ([5]; oxyfluorfen 180 g ai/ha (1×)) was 24 plant. For the same molecule, the “The grade of pesticide damage/plant: grade 1” value ([5]; oxyfluorfen 180 g ai/ha (1×)) was 0 plant, the “The grade of pesticide damage/plant: grade 2” value ([5]; oxyfluorfen 180 g ai/ha (1×)) was 0 plant and the “The grade of pesticide damage/plant: grade 3” value ([5]; oxyfluorfen 180 g ai/ha (1×)) was 0 plant. The “The grade of pesticide damage/plant: grade 0” value ([5]; oxyfluorfen 720 g ai/ha (4×)) was 20 plant, the “The grade of pesticide damage/plant: grade 1” value ([5]; oxyfluorfen 720 g ai/ha (4×)) was 4 plant and the “The grade of pesticide damage/plant: grade 2” value ([5]; oxyfluorfen 720 g ai/ha (4×)) was 0 plant. For the same molecule, the “The grade of pesticide damage/plant: grade 3” value ([5]; oxyfluorfen 720 g ai/ha (4×)) was 0 plant, the “The grade of pesticide: grade 0” value ([6]; sulfentrazone 450 g ai/ha (1×)) was 24 and the “The grade of pesticide: grade 1” value ([6]; sulfentrazone 450 g ai/ha (1×)) was 0. For the same molecule, the “The grade of pesticide: grade 2” value ([6]; sulfentrazone 450 g ai/ha (1×)) was 0, the “The grade of pesticide: grade 3” value ([6]; sulfentrazone 450 g ai/ha (1×)) was 0 and the “The grade of pesticide: grade 0” value ([6]; sulfentrazone 900 g ai/ha (2×)) was 19. The “The grade of pesticide: grade 1” value ([6]; sulfentrazone 900 g ai/ha (2×)) was 5, the “The grade of pesticide: grade 2” value ([6]; sulfentrazone 900 g ai/ha (2×)) was 0 and the “The grade of pesticide: grade 3” value ([6]; sulfentrazone 900 g ai/ha (2×)) was 0. For the same molecule, the “The grade of pesticide damage/plant: grade 0” value ([7]; flumioxazin 60 g ai/ha (1×)) was 24 plant, the “The grade of pesticide damage/plant: grade 1” value ([7]; flumioxazin 60 g ai/ha (1×)) was 0 plant and the “The grade of pesticide damage/plant: grade 2” value ([7]; flumioxazin 60 g ai/ha (1×)) was 0 plant. The “The grade of pesticide damage/plant: grade 3” value ([7]; flumioxazin 60 g ai/ha (1×)) was 0 plant, the “The grade of pesticide damage/plant: grade 0” value ([7]; flumioxazin 240 g ai/ha (4×)) was 19 plant and the “The grade of pesticide damage/plant: grade 1” value ([7]; flumioxazin 240 g ai/ha (4×)) was 5 plant. The “The grade of pesticide damage/plant: grade 2” value ([7]; flumioxazin 240 g ai/ha (4×)) was 0 plant and the “The grade of pesticide damage/plant: grade 3” value ([7]; flumioxazin 240 g ai/ha (4×)) was 0 plant.
